{"source": "patent US20140220589", "proteins": {"B1": {"name": "streptococcal pyogenix exotoxin B (SpeB) (protein)", "chain": "QPVVKSLLDSKGIHYNQGNPYNLLTPVIEKVKPGEQSFVGQHAATGCVATATAQIMKYHNYPNKGLKDYTYTLSSNNPYFNHPKNLFAAISTRQYNWNNILPTYSGRESNVQKMAISELMADVGISVDMDYGPSSGSAGSSRVQRALKENFGYNQSVHQINRGDFSKQDWEAQIDKELSQNQPVYYQGVGKVGGHAFVIDGADGRNFYHVNWGWGGVSDGFFRLDALNPSALGTGGGAGGFNGYQSAVVGIKP"}}, "target": "T1, H11 peptide FLVMFLSG (SEQ. ID. NO.: 1) (not fully specified)", "T1 chain": "FLVMFLSG"}
{"protein": "B1", "values": [{"measurement": "proteolytic activity in a microplate assay (rate of color development, mOD/min); lower limit of detection", "value": "The lower limit of detection was 100 pg of purified SpeB"}]}
